Experimental data: IntAct's records for PubMed 20062059

B1: Exocyst complex component SEC3 (Saccharomyces cerevisiae), P33332 (parent)
chain: MRSSKSPFKRKSHSRETSHDENTSFFHKRTISGSSAHHSRNVSQGAVPSSAPPVSGGNYSHKRNVSRASNSSQTSNFLAEQYERDRKAIINCCFSRPDHKTGEPPNNYITHVRIIEDSKFPSSRPPPDSKLENKKKRLLILSAKPNNAKLIQIHKARENSDGSFQIGRTWQLTELVRVEKDLEISEGFILTMSKKYYWETNSAKERTVFIKSLITLYIQTFEGHVPELVNWDLSLFYLDERSYQRAVITNRPGSVSPIKSPTSNFTTNTTQSVGSVPFSAPTERTRRSETESVNPVSTPASVEYHAGMKSLNKAPYSSNSTLNEVNKRYELEQQQQQEEAELRRLEEQKRLQLQKENEMKRLEEERRIKQEERKRQMELEHQRQLEEEERKRQMELEAKKQMELKRQRQFEEEQRLKKERELLEIQRKQREQETAERLKKEEQEALAKKEEEEKSKRNKVDNESYTQEINGKVDNLLEDLNAVLAEETETTPTMQNGTYVPERSTARAHDQLKKPLNIAKVESLGGSDLNDSISLSDEIAGLNTSNLSGEDQDEKNDLSFEKGDEVRYSNNFEGEAPHVYHEVSIIQEEAPAVSQKLILPEENNESEALIESKEEIKTMENIDDEVLLEILTDINWSIEDDADSMIERIDLRLAETEYLFNQNLLSLQKIGPNIRPYEDKVNDECHRIIPTLSLFLMEMSNFSNDIENVESQDNGLQVESANKKLLWNTLDELLKTVSLDEISLNQLLECPIREKNLPWMENQLNLLLKAFQAIGSDGNEVEYNLREISGLKQRLQFYEKVTKIFLNRIVEEMQKKFSNIRGQDISHDQMIRILTTLLIFSPLILFCKEISQKSYQAIVENWNVSIQPVYMELWTKKISQLQGIDTNDEKMNELSLSQLLNEWDTFRKERKTNDINPVFKNSFSLLTECLQTMRQECIVYQNFVEVFFHISSKHNFEEYIKHFNDPDAPPILLDTVKVMQSDREAAVIETQLVSRIFQPIVTRLSSYFVELVKAEPTVAPALTFYLENEIKSLESSNHEFLLSAVTRMYTQIKQVWSDNVEEQVLHFERISNATTNGEILPGILDLPVGLKNSEDLFQFAKRSMDIKDTDEGYESIELMNSSFRKLSIAATRSITHKEVNSSINPNLSDTAALNNDYMETISLLVNSNWLTEMLSMLNFNKDGIFDTSLQNVKKVFDVEKESYASFLLRDTMPKLTAFVYGVSNIIENTNNVNMTNPSRWAAYSRQNLENILLAYTSHEIETLVKRLHTHMVNDFGYHQENAINNVLCDKLWSCIQGQTVSLYLKLYTVIDKHYRGTNIRFTKNDIISAFEEYKNA

Variants of: B1
Settings: with rho1_yeast RHO1, P06780
Chain of rho1_yeast RHO1, P06780 (P06780 whole entry): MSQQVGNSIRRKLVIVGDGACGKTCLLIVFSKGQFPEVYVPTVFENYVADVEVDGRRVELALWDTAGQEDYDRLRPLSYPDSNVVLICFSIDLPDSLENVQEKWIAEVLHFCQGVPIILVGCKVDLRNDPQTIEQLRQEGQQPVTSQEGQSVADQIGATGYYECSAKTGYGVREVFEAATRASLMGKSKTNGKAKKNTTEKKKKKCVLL

Row | Variant | effect of a mutation on the interaction
1 | E199A | disrupting interaction
2 | L131A | disrupting interaction
3 | K136A | disrupting interaction
